Reference: a protein production outcome set (Wang et al. 2014)

Assay: label from the status in PepcDB records

Q: For “MLETLHLTPLDRWIDAWLAHQRALGRAYDNEGWILGHLRRFIVSSEAGDLDQKGFDRWCASLRHLSPTTRRGRQFVVRKLCLFRRRAEPGCFVPDSIYFARKLPYRRPVILEPAQVSRMLAAADGLAPTTNSPLLPAVMRLATIILYTAGLRRGELARLTLDDVEPQSGLLRIRQSKFHKSRLVPLSPDAAGALRTYLHLRLAPSFNADPSSALLCCGRAGRRGYTGAGLGQAINRLFVTADVRDSEGRLPRVHDIRHSFGVQALIRWYRAGADVQSCLPSLAIYMGHVSVVSTAHYLHFVPTMRELASSRFEAAFGNIVVEAKP”, which protein production is on record?
A: failed

Q: For “MLFAAEGGGFFSSSASGYSNGLALLLLGQKTEQKPIKVSSQWNHYHLVLEDSDTGFRLDSSKNWLSSACTSLICFGRKSERLESEGKKDEAPSVEDYNNCEVTNRFALKSSLKKRSFSDVVIGDDDVSRDGVVDHIDRRKVQWPDTCGIEIAEVREFEPRYGCFLL”, which protein production is on record?
A: failed

Q: Which protein production does the source give for “MLFEASLVAVWAFFCGIDKYDVALNIHRPLITGPVVGLIMGDMQIGLIAGATLELAWLGLVPNAGAQPPDVTMGTIAAVAFAVMTGQSPEVAMGVGMPIAVLMQMLVIGFFAMTSFTMGKADKYAEEANTNGIDFLLLSTITMRSMLYAVIAFLTVYFGEHGAAWIDANAPKTLLEGLGIGAKMVPAIGFAMLLKIMWSKEVAGVFFIGFVMTTYLQLPIMAVAILGASAAALYYFFSGNGNKNSNQEFEDFEDGI” here?
A: failed

Q: For “MLFELVILFVILFLFLGYPISKAWDSFQSKKENSSSILKFEPQEILSICLSYFIFGLGIMWNANDVRGGIPLHKFEKNGMMSDQYASLAHDHIAIVVLLVILGAVSYWRLTKGLTKLSPIFYIFYSTLMIVNIVYTFIYITHTGFAFYTELGGLRYIPVFCIQVGMLAFSLLFIAKLRNTLDYFIQSQNEKDYTQSNRIILLLYRISFGYQKMATVWMISLFPVLLIIQFILILFGQKPDSFIRVFMETSSFNYSKIPAPSPQIVSGDGHYLCTVSVKGHKNIVKPLRAGIRHGERITVNRQLLIANAFENVIEERVPKCHKVIRNFYDKYGYPISKHINTKWSADFVYILMKPLEWFFLFVLYTVDKNPENRIHIQYSELRK”, which protein production is on record?
A: failed

Q: With “MLFLDSVAMKEKPEGREEYPFSVPAMRHLERLEFKTPITFFAGNNGSGKSTLLEGLAAGMTAYAIGNHGDVKGDLYLQHAETVAKAFYFARKKYPKIRMFLRAEDVLGYIRRQNENALDDFRWEREKALKKGEDFPEETPEIFRGIVRNNSLDRRSHGEGFLDIMHRRLHGAGLYFLDEPESPLSPQKQLELAAIIRQAADSGGQLIIATHSPVLLAIPEATIYYFDEDGITERLYDELENIAFLRRFLDRPSKYLDDLEHHHHHH” as the sequence, how does the protein production read?
A: not failed

Q: With “MLFPLILQRPMLSTPTLPRKTFAFLLGGVLLVGLVACGSSTPMAPASSASSALESAAADSLLRQVKTQIREATDEGSLDSLKQARAWAKQATGGDRAALAHYYAALADYRMSNRLPEEDEARRGRVIEDAIGHLKRATEINGTMADAWALLSGYYGQMMGMNPMQGMSLGPKANEAMKRAKEHGPNNPRVWIIDGTSDFYTPGMFGGDKEKALTKFEKAARLAEQGSPDDPLMPGWGHAEAHAWVGVAHMEAERYDPARTAFEAALDLNPDYGWVRSVLLPRLEQQAG” as the sequence, how does the protein production read?
A: failed

Q: For “MLFQDDKGVGVAIYRRRFTVLGCASSPGVPRINGDWGACDPQNPRNRRTRAAFMVEQIGPDGGKTTVVIDTGPDFREQMIAAKVQAVDAVLYTHAHADHLHGIDDLRIYFALQKSRIPIWADPVTMARIRDGFAYCLETPAGSNYPPIVRPQLIADINDPVIIDGAGGPIPFKVHMQQHGDVHSLGFRIGDVAYCTDVSDFPAESLPKLTGLDVLVIDALQYRYHPSHLSLEQALGWIEALAPKRAILTHMHIPLDYDTVMRETPDHVEPAYDQMRFEVEIEAP”, which protein production is on record?
A: failed

Q: With “MLGGTAPKIAKAYQKTLTTNLNDVKNRLKDVTFKPKVLHFVNATNLNQVDGTGTIVNEWIKAAGGQNALKQKGNMISVTTETLAKSDPDVIIVGSATTAEARAALKKNAVLSKLTAVKKNRVYGNPQGTFPWDRYSAEEALQVLWAAKKLHPDQFQLEHHHHHH” as the sequence, how does the protein production read?
A: not failed

Q: For “MLGGVIVVKKAIAALGIGAVAVSVSSINASALEKGTVTASALNIRSGPSSDCDKVAKLYKGKTVEILEKSNGWYKVRVSSSVVGWGSAKYISTSGSSEGTSSQNNSTSSGTTISGNGKVNVSSRLNVRSGAGTNYSLVGKANNGDVVKLLEQSNGWYKIKLSNGVTGWASSQYISKTSEDVGTNNSSNSNSTNNSDKKPSSEESIEGKNGKVTSAVSLNVRSGPGTSYSIIGKLNGGDVVELKAKSNGWYKVKLSSGTIGWVSASYISETNEDTKEKPNSSSNQNSQSNSNSKPSFTGNSDKSTAKGSTIVDFAYTLIGIPYQWGASGPDKFDCSGFTQYVFKHSVGVSIPRVSREQANFGSAISMGNYAPGDLVYFDTDGDGTTNHVGIYVGNSKFIHCSGTQTNPNKVKVDNLTSSYWSKVLLGARRFV”, which protein production is on record?
A: failed

Q: Which protein production does the source give for “MLGKSQKDDHKTTFNKHKKTFSIIVAIKDESKQVIESLVENLKRINYERYEVIIVSDDDESKFREYLEIKFPENFRLIRRESNSGGKAGALNFASRISKGDYLVFMDADARVNEDFLQRLNNKDYVACSLKIIIYDTSTSIQSYYAEFTEKVMDMMFKGRSKLGLPIFPNGSAFSIRRDTLLSIGGWKENAIAEDLELGIRMYLNDLKNLFYDDVVVFLKSPYTLMDLYNQIQRWSYGSSQLLKSSLKLLKKGIKGFEGLLYSQQWVIYPLFFTVLGVYGILTPVFNITQTYLLLLILIYGISVVFYSQVLNQKRVDIKILKTILDASITGYLKGLFGLKYKWRVTPKILDKGGRLIEDNNIPLISIPFYLISFFDASMGFVLSSIVILLVALIESF” here?
A: failed

Q: With “MLGYLLLYMIFGGILLAYGSDWFIEGSTRVAKHFNVSNFVIGATIVAFGTSLPEIVTSSGAALSGSPGLAVGNAIGSCIANIGIILGISVLMYPLIIKKRAIIKNGNIYLIATILLVILGYNGFSRFDGLILFLFMIIYVIYTIKTSESDEEEIISDITVKKASIFIVVGLLAVILGSDLFIGGAKGIAEYFNVPESIIGFSLVAFGTSLPELASSVAAAKRKLGSIVLGNVIGSNIANTCVALSFSAMIVDIPKYNVELMVNTIMALLIIFTMNREKIKKMLNFKNFRTDYFSKIDRIDGISYILIYLIFLAYLLGYIF” as the sequence, how does the protein production read?
A: failed

Q: With “MLHGFLRLAAGAGRSLAVPAILLALGAPAQAGSLLEDCANDKLTPPNRIVACTNVLEDKAASASDQAVAYFNRANALDRNGEFDRAIADYDKAIAFNPKDAEAFNNRGLIWGHKKDFDRALADYDKAIELNPQIAIAYANRGLIWNDIKHDYVKAIADFDKAIRLDPENNGLYNLRGNAYLRKGDYDQAITSYSQAIFLDSQDPNQYFNLGLAWTTKGNLERAIADYSQAISLDANHAEAYRWRADAWVKRGDTDQALSDYTEAIRLDPGDAETFRNRARIWERKRDYDRAIADYDQAIAFAPNDAVAYNGRGWMWSLKHETDRAIVDYVKATAFDPNYVLAYDNLGLAWWDKGDLDRAISAFDQAVIVDPKYAPAYNDRGLARMDKNQYDLAIADYNMAILIDAGFVSAYRNRGNAWNRKGQFDYAIADFDQAIDHDPDDADAYVGRGRSRIYKADYTKAIADLDQAIRIGPKSARAHDTRGLAMVYKADYAGALADYDEAIRLSPKNASAYRNRGIASFYFGPPAKAQADFEQAAAIKPGDSYHAIWLDLARRRNGQPSILVDAKLDMTRWPAAVVRLLLGQQTPEATLLAADNPDATKKSEQLCEANFYVAEFQRLQHHDEEALRLYRLALGGCPRDFIEYTAATSALRVMGKAP” as the sequence, how does the protein production read?
A: failed

Q: Which protein production does the source give for “MLHGKGCKKDVKIIVWSGLLFLCLAARALATGVVGYLPMSDGEYAQKRALKPLLTLPYSVSPDQTWHFRQVGVSGVTLLPEPKKDNEWRISGKDRAGNSWVVPVGRLINLAGNAQFYRADLDRNGIQDLVIWLGNPGLGLAPSAQYIIFTFLKNGRPCVFEPWGFYTATDTGVDDLLDLQGNGRTQLLDMQFDSGYWITNLYQVKDARWQRVHGWFGRLSYPALTRFNHYPGRKLIIKPIAGRNPQTDDLSLTQRCLIRGNVLPGVNQD” here?
A: failed

Q: Which protein production does the source give for “MLHHVEINVDHLEESIAFWDWLLGELGYEDYQSWSRGKSYKHGKTYLVFVQTEDRFQTPTFHRKRTGLNHLAFHAASREKVDELTQKLKERGDPILYEDRHPFAGGPNHYAVFCEDPNRIKVEIVAP” here?
A: not failed

Q: Which protein production does the source give for “MLHTEKVEYVNQAHEDITGIARDKSIGTNLRDLTFFRQHNALAEQTLAKIFRGDQAKGEVQFSRTDGSRYWLKYIVSQFITDRGNHYALVSGEENSDEHLEHHHHHH” here?
A: failed

Q: Which protein production does the source give for “MLHVHILSWVLAIILFIATYLNYSKTQGASPYYKPLHMALRLFMLLTLISGFWELIEEFMAASNGEGGNHMLLTLKMLCGLAVIAFMEISIAKRKKQQTSHKFFWITIILIIITMAIGVILPWGPISKIFGIS” here?
A: failed

Q: With “MLIFGFIGLFFLNIFSLHAQGIVTNKDAQEEFKWALNSYNNGIYDDALLSFKKILSFDPNNLDYHFWTGNVYYRLGYVEEALMEWRNLKDQGYKVPYLRHLISTIEQRRGIFSNYELNFKKLVKVASLDNSIYKRPHGYQITSLRADKYGGYYAANFVGNEILYFDVNNNVNALVKDGFSYLKSPYDVIEANNLLYVTLYSSDEIGVYDKVLGVKRKSIGNKGTKDGELLAPQYMAIDKRNYIYVSEWGNKRVSKFGLEGDFILHFGSRTSGYKGLLGPTGVTYLNENIYVADSLRNTIEVFDTSGNHLYSVFTSIEGIEGLSSDFVGNNVIVSSKDGVYKYSIAKKTITKILKADKMNSKISSSILDANNQMIVSDFNNAKVSVYKSDASLYDSLNVDVRRIIRLGGPKIYVELNVSSKSGLPVVGLKSENFSISNENYYIVNPKVAYNVNASKDINIAVVFDKSSYMKKYDTDQIVGLNALMELSKNKNFSFINATSVPIIDNIESLTNSIRNTSSLGPYSTDAVKTDVSLKLAGSGLMSKSSRRAVVYFSGGILNRKAFEKYSLDTIVSYYKNNDIRFYLILFGNDPINSKLQYLVNETGGAVIPFSSYEGVSKVYDLILEQKTGTYLLEYYYPGPQEPNKYFNLSVEANINQQTGRGEFAYFINLEHHHHHH” as the sequence, how does the protein production read?
A: failed

Q: For “MLIINKLNHAQKQLEKLNFIPQQADKVDFLASSSEFKARILQLINTAKSRIYLTALYFEQDEAGQQILAALYQAKLANPALDIQILVDWHRAQRGRIGEKTTSSNADWYANMKQQYNLPPEQEIAVWGVPINGREIFGVLHLKGFIFDDTILYSGASINNVYLQQFDRYRYDRYHTLENKVLADSLVTFLQQHILTDHAVNRLDNMQRPVTANIRPAIKAFRKQLTKQQYQFAEQPESNGLMLSPIAGLGRKNQLNKTIEALFYKTQNKLTICTPYFNFPRSLITRIKWLLENGKQVEIIAGDKKANDFYTPPDKKFTMAAALPYLYEKNLRAFAKRFDSYIQNKLLTIRLWKDGENTYHLKGLWVDNRYILLTGNNLNPRAWGLDAENGILLDDPKAELAEKAALELTQIRTFTQELSHYSDLETIKDYPLEVQKLLKKFGRVKLDKIIKMLLLEHHHHHH”, which protein production is on record?
A: failed

Q: For “MLIITYISACILFLVSFSHVYWAFGGNWGTNSVIPTKAGEKAFTPRAGMTLVIALLLSMAAIILLQQANIVHFAVPNVIIQVGSWICMIVFSIRVIGEFNYFGIFKRQKDTHFARMDTGLYIPLCAFLSLSFLLAIIL”, which protein production is on record?
A: failed

Q: With “MLILVILLVLVALAFDFINGFHDAANSIATVVSTRVLSPLVAVGWAAFFNFISAMPVLWGAELKVAATMGKGIVHFEQLKAGGISLVLMVVFAALMGAIVWNLLTWWWGLPSSSSHALAGGMIGASLPPLGFAGLIPSGILKIAAFIVLSPLIGMVLGSAMMVATAWVVRKNTPARVDRWFRRLQLVSAAIFSYSHGTNDAQKVMGIISVILYGTIWADRAAMTPGHFPVPFWVVLSCHAAIGLGTMFGGWRIVRTMGHNLTKLQPIGGFCAETGGGVTILALAHFGIPVSTTHTITGAIVGVGSTKGTRAVRWGVAGRIIWAWIFTIPAAAIVAGVIFLVTRAIVSVIGVG” as the sequence, how does the protein production read?
A: failed
